Here are results for 5 molecules from PMC9392796, “A mannose-sensing AraC-type transcriptional activator regulates cell–cell aggregation of Vibrio cholerae” (NPJ Biofilms and Microbiomes, 2022).

In data set [1] the target is T1, ManR (VC1825) (Vibrio cholerae, UniProt Q9KR22).
T1 construct: gene VC_1825
As to conditions: 50 mM HEPES-NaOH pH 8.0, 500 mM NaCl, 10% glycerol, 1 mM TCEP, 0.5 mg/ml BSA, 0.05% Tween 20, 23 °C; NT-647-labelled protein 2 nM; effector (co-activator).

Data set [2] addresses ManR (VC1825), AraC-type transcriptional regulator of Vibrio cholerae (Vibrio cholerae N16961). As to the kind of experiment: not stated; Supplementary Fig. 3; method and conditions not shown.
The target of data set [3] is ManR (VC1825) (Vibrio cholerae N16961, UniProt Q9KR22 1-279). As to the kind of experiment: EMSA; one complex. As to conditions: protein: recombinant; chain copies: 2; blunt.

The term Kd denotes the concentration at which binding is half-saturated. A higher Kd goes with weaker binding. Turning to `O=P(O)(O)OCC1(O)O[C@H](CO)[C@@H](O)[C@@H]1O` (some centres unmarked) [F1P, fructose 1-phosphate], in data set [1], the Kd was approximately 411 µM. A word on the stoichiometry N: it is the number of molecules, sites or subunits per partner or assembly. For the molecule “ManR (VC1825), AraC-type transcriptional regulator of Vibrio cholerae (natural protein)”, the stoichiometry N in data set [2] came to 2. `O=P(O)(O)OC[C@H]1OC(O)[C@@H](O)[C@@H](O)[C@@H]1O` (some centres unmarked) [M6P, mannose 6-phosphate] yielded a Kd in data set [1] of approximately 0.152 µM.

B1: MB2 WT (dsDNA)
DNA 1: CAAACCAATAGAGTTACAATCCTCTAGTGAATGTTTTAT
DNA 2: ATAAAACATTCACTAGAGGATTGTAACTCTATTGGTTTG
Consider B1, for which the binding result in data set [3] is recorded as “binds”.

B2: MB1 WT (dsDNA)
DNA 1: AGACAGAATGATACAATAATCCAGTTTTAACACCAATTC
DNA 2: GAATTGGTGTTAAAACTGGATTATTGTATCATTCTGTCT
B2: the binding result in data set [3] is on record as “binds”.
